This is an account of results in US20250313644A1 (FUTUREGEN BIOPHARMACEUTICAL BEIJING, published 2025).

In experiment [1] the target is T1, human TL1A (HuTL1A) (human, UniProt O95150 57-251, limits assumed, biotin-labelled in some assays (site not stated)).
T1 construct: Expressed in EXPI-293 cells and purified by Ni-NTA (His-tag); Described as a trimeric antigen; also called TL1A antigen; WT
T1 sequence: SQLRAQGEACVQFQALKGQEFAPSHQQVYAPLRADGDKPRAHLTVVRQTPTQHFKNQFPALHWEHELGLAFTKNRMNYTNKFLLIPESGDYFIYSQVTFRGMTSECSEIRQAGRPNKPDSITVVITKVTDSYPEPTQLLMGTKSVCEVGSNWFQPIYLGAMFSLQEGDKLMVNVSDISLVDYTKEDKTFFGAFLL
The experiment is described as follows: DLS, antigen and antibody mixed in equal moles. The procedure:
60 μM antigen and antibody was mixed in equal moles, incubated at room temperature for 30 minutes, and then the molecular size was detected using UNCLE or SEC.

Experiment [2] concerns the target T1, human TL1A (HuTL1A). Description: ELISA: biotin-HuTL1A on streptavidin plate, antibody diluted at pH 7.4, HRP-anti-human Fc, OD450. On the procedure: (§1) Corresponding antibodies were added to specific wells, and the antibodies were diluted with sodium dihydrogen phosphate-citrate buffer at pH 7.4, pH 6.0, pH 5.8, or pH 5.6. Binding assay was carried out at room temperature for 30 minutes. After the incubation, the excess antibodies were removed and the wells were washed by PBST. HRP-anti-Human Fc (Sino Biological) was then added into each well and incubated for 30 minutes to detect the bound antibody. The substrate TMB was finally added to develop color for 5-10 minutes. The color development reaction was terminated with 1M sulfuric acid. OD450 nm was recorded on a microplate reader, and the data were processed and fitted by 4 parameter logistic regression.

In experiment [3] the target is T1, human TL1A (HuTL1A). Described as above. The procedure:
as §1
The source holds these as a separate data set.

Experiment [4] concerns the target T1, human TL1A (HuTL1A). Description: ELISA: biotin-HuTL1A on streptavidin plate, antibody diluted at pH 6.0, HRP-anti-human Fc, OD450. On the procedure: as §1
A general note: An ELISA detects its analyte on a solid surface through an enzyme-linked reagent.

The target of experiment [5] is T1, human TL1A (HuTL1A). The experiment is described as follows: BLI (Gator), biotin-HuTL1A on SA probe, pH 7.4; BLI (Gator), pH 7.4. On the procedure: The binding kinetics between monoclonal antibodies and antigens was measured using Gator, a label-free biomolecule interaction analyzer based on the principle of biolayer interference (BLI). […] Then a serial dilutions of single-arm M701 antibodies and control antibodies were added. The antibodies interacted with the antigen captured by the SA probe, and the interaction was analyzed by detecting the signal change of the reflection interference spectrum of the probe surface, and finally the binding kinetics constants of the antibodies were calculated. The kinetic constants of antigen and antibodies were measured at pH 7.4 and 5.6 in sodium dihydrogen phosphate-citrate buffer.

The target in experiment [6] is T1, human TL1A (HuTL1A). The experiment is described as follows: BLI (Gator), His-tagged TL1A on anti-His probe, pH 7.4. The procedure: (§2) Then a serial dilutions of single-arm M701 antibodies and control antibodies were added.
In experiment [7] the target is T2, cynomolgus monkey/rhesus monkey TL1A (cynomolgus monkey/rhesus monkey).
T2 construct: also called Cynomolgus/rhesus monkey TL1A
Described as above. On the procedure: as §2

Experiment [8] deals with T1, human TL1A (HuTL1A). The experiment is described as follows: cell-based or functional assay.

By EC50 (read off the curve) is commonly meant the midpoint of the concentration-response curve. Usually Kd stands for the equilibrium constant for the complex coming apart. In general, koff refers to a measure of how fast the partners let go of each other. A word on the kon: it is a measure of how fast the partners come together.

Residue numbers refer to the chain shown, from its start.

B1: M701-3912 (antibody, human IgG1, kappa, L234A L235A, V domains shown)
VH: ELQLQESGPGLVKPSETLSLTCAVSGISFNDFHWAWIRQPPGKGLEWIGDINHRGHTSYNPSLKSRVTVSVDTSKNQFSLKLSSVTAADTAVYYCARDYPNFTFDLWGQGTLVTVSS
VL: DIQMTQSPATLSLSPGERATLSCRASQSVSTYLAWYQQKPGQAPRLLIYGASRRATGIPARFSGSGSGTDFTLTISSLQSEDFAVYYCQQYGDTPLTFGQGTKVEIKR
notes: Fc-engineered IgG1
With B1, the “Ave Z-dia (nm) of the antigen-antibody complex” value (“Ave Z-dia (nm)” below) with human TL1A (HuTL1A) [1] worked out at 18.5 nm.

B2: single-arm antibody 4035 (antibody, human IgG1, kappa, L234A L235A)
heavy: ELQLQESGPGLVKPSETLSLTCAVSGISFNDFHWAWIRQPPGKGLEWIGDINHRGHTSYNPSLKSRVTVSVDTSKNQFSLKLSSVTAADTAVYYCARDYPNFTFDLWGQGTLVTVSSASTKGPSVFPLAPSSKSTSGGTAALGCLVKDYFPEPVTVSWNSGALTSGVHTFPAVLQSSGLYSLSSVVTVPSSSLGTQTYICNVNHKPSNTKVDKKVEPKSCDKTHTCPPCPAPEAAGGPSVFLFPPKPKDTLMISRTPEVTCVVVDVSHEDPEVKFNWYVDGVEVHNAKTKPREEQYNSTYRVVSVLTVLHQDWLNGKEYKCKVSNKALGAPIEKTISKAKGQPREPQVYTLPPCREEMTKNQVSLWCLVKGFYPSDIAVEWESNGQPENNYKTTPPVLDSDGSFFLYSKLTVDKSRWQQGNVFSCSVMHEALHNHYTQKSLSLSPG
light: not shown
chain: DKTHTCPPCPAPEAAGGPSVFLFPPKPKDTLMISRTPEVTCVVVDVSHEDPEVKFNWYVDGVEVHNAKTKPREEQYNSTYRVVSVLTVLHQDWLNGKEYKCKVSNKALGAPIEKTISKAKGQPREPQVCTLPPSREEMTKNQVSLSCAVKGFYPSDIAVEWESNGQPENNYKTTPPVLDSDGSFFLVSKLTVDKSRWQQGNVFSCSVMHEALHNHYTQKSLSLSPG
notes: Single-arm form of 3912; also called M701-4035
With B2, the “EC50 (read off the curve)” value with human TL1A (HuTL1A) [2] was roughly 0.3 nM; in the experiment with human TL1A (HuTL1A) [3], roughly 0.3 nM; with human TL1A (HuTL1A) [4] it was roughly 1 nM.

B3: single-arm antibody M701-3952 (antibody, human IgG1, kappa, L234A L235A)
heavy: B2 heavy with I27V, N30S, F32Y, S58N, V71I, Y94F, Y99F, T103I, L106Y
light: not shown
chain: B2 chain
As to B3, the values for the Kd (with human TL1A (HuTL1A) [5]; with human TL1A (HuTL1A) [6]; in experiment [7]) were 5.25 nM, 5.68 nM and 5.75 nM, respectively. Besides, the off-rate (koff) with human TL1A (HuTL1A) [5] was 0.00306 s⁻¹; with human TL1A (HuTL1A) [6], 0.00346 s⁻¹; in experiment [7], 0.0036 s⁻¹. In addition, the on-rate (kon) was found to be 582000 M⁻¹ s⁻¹ with human TL1A (HuTL1A) [5], 610000 M⁻¹ s⁻¹ with human TL1A (HuTL1A) [6] and 626000 M⁻¹ s⁻¹ in experiment [7]. Moreover, the concentration for a half-maximal effect (EC50 (read off the curve)) with human TL1A (HuTL1A) [2] and in the experiment with human TL1A (HuTL1A) [3] was roughly 0.5 nM throughout.

B4: single-arm antibody 3900 (antibody, human IgG1, kappa, L234A L235A)
heavy: EVQLQESGPGLVKPSETLSLTCAVSGVSYSDYHWAWIRQPPGKGLEWIGDINHKGKTNYNPSLKSRVTISVDTSKNQFSLKLSSVTAADTAVYYCARDYPNFLFDYWGQGTLVTVSSASTKGPSVFPLAPSSKSTSGGTAALGCLVKDYFPEPVTVSWNSGALTSGVHTFPAVLQSSGLYSLSSVVTVPSSSLGTQTYICNVNHKPSNTKVDKKVEPKSCDKTHTCPPCPAPEAAGGPSVFLFPPKPKDTLMISRTPEVTCVVVDVSHEDPEVKFNWYVDGVEVHNAKTKPREEQYNSTYRVVSVLTVLHQDWLNGKEYKCKVSNKALGAPIEKTISKAKGQPREPQVYTLPPCREEMTKNQVSLWCLVKGFYPSDIAVEWESNGQPENNYKTTPPVLDSDGSFFLYSKLTVDKSRWQQGNVFSCSVMHEALHNHYTQKSLSLSPG
light: not shown
chain: B2 chain
notes: also called M701-3900
Take B4: the results for the concentration giving a half-maximal response (EC50 (read off the curve)) with human TL1A (HuTL1A) [2], in the experiment with human TL1A (HuTL1A) [3] and with human TL1A (HuTL1A) [4] were roughly 0.5 nM, roughly 0.5 nM and roughly 0.9 nM, respectively.

B5: single-arm antibody 3672 (antibody, human IgG1, kappa, L234A L235A)
heavy: ELQLQESGPGLVKPSETLSLTCAVSGLSFTDFYWAWIRQPPGKGLEWIGEINHKGNTSYNPSLKSRVTVSIDTSKNQFSLKLSSVTAADTAVYFCARDFPNYTFDFWGQGTLVTVSSASTKGPSVFPLAPSSKSTSGGTAALGCLVKDYFPEPVTVSWNSGALTSGVHTFPAVLQSSGLYSLSSVVTVPSSSLGTQTYICNVNHKPSNTKVDKKVEPKSCDKTHTCPPCPAPEAAGGPSVFLFPPKPKDTLMISRTPEVTCVVVDVSHEDPEVKFNWYVDGVEVHNAKTKPREEQYNSTYRVVSVLTVLHQDWLNGKEYKCKVSNKALGAPIEKTISKAKGQPREPQVYTLPPCREEMTKNQVSLWCLVKGFYPSDIAVEWESNGQPENNYKTTPPVLDSDGSFFLYSKLTVDKSRWQQGNVFSCSVMHEALHNHYTQKSLSLSPG
light: not shown
chain: B2 chain
notes: also called M701-3672
As to B5, the “EC50 (read off the curve)” value with human TL1A (HuTL1A) [2] and with human TL1A (HuTL1A) [3] was roughly 3 nM each time.

B6: single-arm antibody M701-3990 (antibody, human IgG1, kappa, L234A L235A)
heavy: B2 heavy with I27V, N30T, F32Y, S58N, V71I, T103I, F104Y, L106Y
light: not shown
chain: B2 chain
notes: Single-arm form of 4019
For the molecule B6, the equilibrium dissociation constant (Kd) was 4.26 nM in the experiment with human TL1A (HuTL1A) [5], 4.89 nM in the experiment with human TL1A (HuTL1A) [6] and 4.51 nM in experiment [7]. The off-rate (koff) was 0.00168 s⁻¹ with human TL1A (HuTL1A) [5], 0.00214 s⁻¹ with human TL1A (HuTL1A) [6] and 0.00208 s⁻¹ in experiment [7]. Besides, the kon with human TL1A (HuTL1A) [5] is 394000 M⁻¹ s⁻¹; with human TL1A (HuTL1A) [6], 438000 M⁻¹ s⁻¹; in experiment [7] it was 462000 M⁻¹ s⁻¹. The figures for the “EC50 (read off the curve)” value in the experiment with human TL1A (HuTL1A) [2], with human TL1A (HuTL1A) [3] and in the experiment with human TL1A (HuTL1A) [4] were roughly 0.4 nM, roughly 0.4 nM and roughly 1 nM, respectively.

B7: M701-3756 (antibody, human IgG1, kappa, L234A L235A, V domains shown)
VH: ELQLQESGPGLVKPSETLSLTCAVSGLSFTDFYWAWIRQPPGKGLEWIGEINHKGNTSYNPSLKSRVTVSIDTSKNQFSLKLSSVTAADTAVYFCARDFPNYTFDFWGQGTLVTVSS
VL: DIQLTQSPGTLSLSPGERATLSCRASQSVSNHLAWYQQKPGQAPRLLIYGASKRATGIPDRFSGSGSGTDFTLTISRLEPEDFAVYYCQQYADAPLTFGQGTKVEIKR
notes: Fc-engineered IgG1; from the original phage library
With B7, the “IC50 (read off the curve); SEAP reporter in HEK293T/DR3-NFκB cells with soluble TL1A, OD655” value with human TL1A (HuTL1A) [8] was roughly 1 nM. The “Ave Z-dia (nm)” value with human TL1A (HuTL1A) [1] amounted to 19.1 nm.

B8: M701-3876 (antibody, human IgG1, kappa, L234A L235A, V domains shown)
VH: EVQLQESGPGLVKPSETLSLTCAVSGVSYSDYHWAWIRQPPGKGLEWIGDINHKGKTNYNPSLKSRVTISVDTSKNQFSLKLSSVTAADTAVYYCARDYPNFLFDYWGQGTLVTVSS
VL: B7 VL with D1A, L4M, N31S, K53R, D60A, A94S
notes: Fc-engineered IgG1
As for B8, in the experiment with human TL1A (HuTL1A) [8], the “IC50 (read off the curve); SEAP reporter in HEK293T/DR3-NFκB cells with soluble TL1A, OD655” value was roughly 1 nM. Also, the “Ave Z-dia (nm)” value with human TL1A (HuTL1A) [1] was determined as 18.7 nm.
